Article doi:10.1101/2025.05.01.651538

Legend:
KDM5ACAT = test: EMSA; conditions: Nucleosome EMSA: 100 nM nucleosome, 50 mM HEPES pH 7.5, 50 mM KCl, 1 mM BME, 0.01% Tween-20, 0.01% BSA, 5% sucrose, 1 h on ice, DNA EMSA: 100 nM DNA, TE …
[1] = biological target: acidic patch mutant (APM) H3K4me3 147bp nucleosome (human)
[2] = biological target: acidic patch mutant (APM) H3K4me3 147bp nucleosome (human); test: native gel or EMSA; direct binding: 100 nM nucleosome, varying concentrations of KDM5A; 50 mM HEPES pH 7.5, 50 mM KCl, 1 mM BME, 0.01% Tween-20, 0.01% BSA, 5% sucrose; 1 hour on ice; 7.5% gel at 4°C, SYBR gold; fit with Hill slope
[3] = biological target: acidic patch mutant (APM) unmodified 147bp nucleosome (H2A E61A, E64S, N68A, D72S, N89A, D90A, E91S) (human); test: as above
[4] = biological target: acidic patch mutant (APM) unmodified 147bp nucleosome (H2A E61A, E64S, N68A, D72S, N89A, D90A, E91S); test: EMSA; conditions: 0-32 µM KDM5A^MutR titrated against APM 147bp nucleosome

KDM5A^CAT (KDM5A 1–801, minimal catalytically active construct), sequence (P29375 1-801): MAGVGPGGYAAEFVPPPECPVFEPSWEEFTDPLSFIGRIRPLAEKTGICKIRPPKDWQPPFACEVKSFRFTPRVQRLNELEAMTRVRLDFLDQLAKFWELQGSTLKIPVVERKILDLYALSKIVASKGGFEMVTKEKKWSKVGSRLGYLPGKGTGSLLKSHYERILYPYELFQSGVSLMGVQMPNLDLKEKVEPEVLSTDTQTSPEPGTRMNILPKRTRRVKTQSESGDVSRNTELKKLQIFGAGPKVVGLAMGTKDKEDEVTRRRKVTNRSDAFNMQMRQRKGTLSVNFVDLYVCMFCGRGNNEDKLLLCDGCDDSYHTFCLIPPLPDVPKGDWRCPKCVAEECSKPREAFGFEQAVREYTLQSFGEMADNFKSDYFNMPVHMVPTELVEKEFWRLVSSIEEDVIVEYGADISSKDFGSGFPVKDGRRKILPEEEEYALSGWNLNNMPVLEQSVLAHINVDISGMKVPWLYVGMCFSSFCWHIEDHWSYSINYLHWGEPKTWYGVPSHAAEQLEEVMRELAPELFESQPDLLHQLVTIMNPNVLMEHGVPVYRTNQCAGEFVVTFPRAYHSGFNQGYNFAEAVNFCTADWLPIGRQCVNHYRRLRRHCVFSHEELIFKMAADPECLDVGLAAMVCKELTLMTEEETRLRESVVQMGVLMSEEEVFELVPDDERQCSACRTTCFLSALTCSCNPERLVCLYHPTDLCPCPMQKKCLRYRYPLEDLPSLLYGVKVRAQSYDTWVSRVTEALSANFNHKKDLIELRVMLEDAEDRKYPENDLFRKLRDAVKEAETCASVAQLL

In the case of 147bp APM nucleosome, unmodified, the binding signal (KDM5ACAT; H2A E61A;E64S;N68A;D72S;N89A;D90A;E91S, scale: fold loss in affinity vs wild-type 147bp nucleosome) is reported as 3.

In the case of 147bp nucleosome, wild-type unmodified, the binding signal (KDM5ACAT; scale: fold higher affinity than APM 147bp nucleosome) is reported as 3.

H3K4me3 APM nucleosome was tested, and the binding signal (KDM5ACAT; H3K4me3, H2A E61A;E64S;N68A;D72S;N89A;D90A;E91S, scale: fold lower affinity vs wild-type H3K4me3 nucleosome) was 2.

“KDM5A^CAT (KDM5A 1–801, minimal catalytically active construct) (from UniProt P29375 1-801) (domain or fragment)” showed a fold decrease in demethylation of H3K4me3 on APM 147bp nucleosomes relative to wild-type nucleosomes, western blot, single turnover (5 μM KDM5A enzyme, 50 nM substrate) [1] of 9 fold, a fold lower affinity relative to wild-type H3K4me3 nucleosome [2] of 2 fold and a fold loss in affinity relative to wild-type 147bp nucleosome [3] of 3 fold.

For “KDM5A^CAT (KDM5A 1–801, minimal catalytically active construct) (from UniProt P29375) R210A; R217A; R219A; R220A; R232A; R264A; R265A; R266A; R271A; R280A; R282A”, the Kd [4] was 14 µM.
